Numbered stars: 1 amine (or outer) side, 2 acyl side, 3 side chain; on linkers, the order of the positions; unused ones are H or OH. Square brackets hold non-standard residues; d marks the D form. Primed or numbered codes have the meaning given here. Phe(2,6-Me2,4-CONH2) = Cc1cc(C(N)=O)cc(C)c1C[C@H](N)C(=O)O; Bip = N[C@@H](Cc1ccc(-c2ccccc2)cc1)C(=O)O; NMeW = CN[C@@H](Cc1c[nH]c2ccccc12)C(=O)O; Phe(4-CN) = N#Cc1ccc(C[C@H](N)C(=O)O)cc1; Phe(4-F) = N[C@@H](Cc1ccc(F)cc1)C(=O)O; Dmt = Cc1cc(O)cc(C)c1C[C@H](N)C(=O)O; hPhe = N[C@@H](CCc1ccccc1)C(=O)O; NMeβAla = CN(CCC(=O)[*:2])[*:1]; Tic = O=C(O)[C@@H]1Cc2ccccc2CN1; dTic = O=C(O)[C@H]1Cc2ccccc2CN1; β3hF = N[C@H](CC(=O)O)Cc1ccccc1; NMeL = CN[C@@H](CC(C)C)C(=O)O; Tic(7-OH)′ = not defined here; NMeA = CN[C@@H](C)C(=O)O; Nle = CCCC[C@H](N)C(=O)O; dNMeA = CN[C@H](C)C(=O)O; Aib = CC(C)(N)C(=O)O; Sar = CNCC(=O)O

B1: H-DMT-(D)Thr-G-bhF-Sar-NH2 (peptide)
peptide: H-[Dmt][dT]G[β3hF][Sar]-NH2
SMILES: Cc1cc(O)cc(C)c1C[C@H](N)C(=O)N[C@@H](C(=O)NCC(=O)N[C@H](CC(=O)N(C)CC(N)=O)Cc1ccccc1)[C@H](C)O
B2: H-DMT-a-Leu-bhF-Sar-NH2 (peptide)
peptide: H-[Dmt][dA]L[β3hF][Sar]-NH2
SMILES: Cc1cc(O)cc(C)c1C[C@H](N)C(=O)N[C@H](C)C(=O)N[C@@H](CC(C)C)C(=O)N[C@H](CC(=O)N(C)CC(N)=O)Cc1ccccc1
B3: H-DMT-N(Me)-a-F-Sar-NH2 (peptide)
peptide: H-[Dmt][dNMeA]F[Sar]-NH2
SMILES: Cc1cc(O)cc(C)c1C[C@H](N)C(=O)N(C)[C@H](C)C(=O)N[C@@H](Cc1ccccc1)C(=O)N(C)CC(N)=O
B4: H-DMT-r-W-N(Me)bAla-OH (peptide)
peptide: H-[Dmt][dR]W[NMeβAla]-OH
SMILES: Cc1cc(O)cc(C)c1C[C@H](N)C(=O)N[C@H](CCCNC(=N)N)C(=O)N[C@@H](Cc1c[nH]c2ccccc12)C(=O)N(C)CCC(=O)O
B5: H-DMT-a-hF-Sar-NH2 (peptide)
peptide: H-[Dmt][dA][hPhe][Sar]-NH2
SMILES: Cc1cc(O)cc(C)c1C[C@H](N)C(=O)N[C@H](C)C(=O)N[C@@H](CCc1ccccc1)C(=O)N(C)CC(N)=O
B6: H-DMT-a-ILeu-bhF-Sar-NH2 (peptide)
peptide: H-[Dmt][dA]I[β3hF][Sar]-NH2
SMILES: CC[C@H](C)[C@H](NC(=O)[C@@H](C)NC(=O)[C@@H](N)Cc1c(C)cc(O)cc1C)C(=O)N[C@H](CC(=O)N(C)CC(N)=O)Cc1ccccc1
B7: H-Phe(DMC)-Tic-G-bhF-Sar-NH2 (peptide)
peptide: H-[Phe(2,6-Me2,4-CONH2)][Tic]G[β3hF][Sar]-NH2
SMILES: Cc1cc(C(N)=O)cc(C)c1C[C@H](N)C(=O)N1Cc2ccccc2C[C@H]1C(=O)NCC(=O)N[C@H](CC(=O)N(C)CC(N)=O)Cc1ccccc1
B8: H-DMT-r-Bip-K-NH2 (peptide)
peptide: H-[Dmt][dR][Bip]K-NH2
SMILES: Cc1cc(O)cc(C)c1C[C@H](N)C(=O)N[C@H](CCCNC(=N)N)C(=O)N[C@@H](Cc1ccc(-c2ccccc2)cc1)C(=O)N[C@@H](CCCCN)C(N)=O
B9: H-DMT-(D)Asp-G-bhF-Sar-NH2 (peptide)
peptide: H-[Dmt][dD]G[β3hF][Sar]-NH2
SMILES: Cc1cc(O)cc(C)c1C[C@H](N)C(=O)N[C@H](CC(=O)O)C(=O)NCC(=O)N[C@H](CC(=O)N(C)CC(N)=O)Cc1ccccc1
B10: H-DMT-dTic-G-F-Sar-NH2 (peptide)
peptide: H-[Dmt][dTic]GF[Sar]-NH2
SMILES: Cc1cc(O)cc(C)c1C[C@H](N)C(=O)N1Cc2ccccc2C[C@@H]1C(=O)NCC(=O)N[C@@H](Cc1ccccc1)C(=O)N(C)CC(N)=O
B11: H-DMT-dTic-F-Sar-NH2 (peptide)
peptide: H-[Dmt][dTic]F[Sar]-NH2
SMILES: Cc1cc(O)cc(C)c1C[C@H](N)C(=O)N1Cc2ccccc2C[C@@H]1C(=O)N[C@@H](Cc1ccccc1)C(=O)N(C)CC(N)=O
B12: H-DMT-Tic-G-bhF-Sar-NH2 (peptide)
peptide: H-[Dmt][Tic]G[β3hF][Sar]-NH2
SMILES: Cc1cc(O)cc(C)c1C[C@H](N)C(=O)N1Cc2ccccc2C[C@H]1C(=O)NCC(=O)N[C@H](CC(=O)N(C)CC(N)=O)Cc1ccccc1
B13: H-DMT-r-F-Sar-NH2 (peptide)
peptide: H-[Dmt][dR]F[Sar]-NH2
SMILES: Cc1cc(O)cc(C)c1C[C@H](N)C(=O)N[C@H](CCCNC(=N)N)C(=O)N[C@@H](Cc1ccccc1)C(=O)N(C)CC(N)=O
B14: H-Phe(DMC)-G-G-bhF-Sar-NH2 (peptide)
peptide: H-[Phe(2,6-Me2,4-CONH2)]GG[β3hF][Sar]-NH2
SMILES: Cc1cc(C(N)=O)cc(C)c1C[C@H](N)C(=O)NCC(=O)NCC(=O)N[C@H](CC(=O)N(C)CC(N)=O)Cc1ccccc1
B15: H-Phe(DMC)-(D)Thr-G-bhF-Sar-NH2 (peptide)
peptide: H-[Phe(2,6-Me2,4-CONH2)][dT]G[β3hF][Sar]-NH2
SMILES: Cc1cc(C(N)=O)cc(C)c1C[C@H](N)C(=O)N[C@@H](C(=O)NCC(=O)N[C@H](CC(=O)N(C)CC(N)=O)Cc1ccccc1)[C@H](C)O
B16: H-DMT-r-Phe(4-CN)-Sar-NH2 (peptide)
peptide: H-[Dmt][dR][Phe(4-CN)][Sar]-NH2
SMILES: Cc1cc(O)cc(C)c1C[C@H](N)C(=O)N[C@H](CCCNC(=N)N)C(=O)N[C@@H](Cc1ccc(C#N)cc1)C(=O)N(C)CC(N)=O
B17: H-DMT-a-Aib-bhF-Sar-NH2 (peptide)
peptide: H-[Dmt][dA][Aib][β3hF][Sar]-NH2
SMILES: Cc1cc(O)cc(C)c1C[C@H](N)C(=O)N[C@H](C)C(=O)NC(C)(C)C(=O)N[C@H](CC(=O)N(C)CC(N)=O)Cc1ccccc1
B18: H-DMT-G-G-bhF-Sar-NH2 (peptide)
peptide: H-[Dmt]GG[β3hF][Sar]-NH2
SMILES: Cc1cc(O)cc(C)c1C[C@H](N)C(=O)NCC(=O)NCC(=O)N[C@H](CC(=O)N(C)CC(N)=O)Cc1ccccc1
B19: H-DMT-a-hF-Nle-NH2 (peptide)
peptide: H-[Dmt][dA][hPhe][Nle]-NH2
SMILES: CCCC[C@H](NC(=O)[C@H](CCc1ccccc1)NC(=O)[C@@H](C)NC(=O)[C@@H](N)Cc1c(C)cc(O)cc1C)C(N)=O
B20: H-DMT-(D)Tyr-G-bhF-Sar-NH2 (peptide)
peptide: H-[Dmt][dY]G[β3hF][Sar]-NH2
SMILES: Cc1cc(O)cc(C)c1C[C@H](N)C(=O)N[C@H](Cc1ccc(O)cc1)C(=O)NCC(=O)N[C@H](CC(=O)N(C)CC(N)=O)Cc1ccccc1
B21: H-DMT-r-H-K-NH2 (peptide)
peptide: H-[Dmt][dR]HK-NH2
SMILES: Cc1cc(O)cc(C)c1C[C@H](N)C(=O)N[C@H](CCCNC(=N)N)C(=O)N[C@@H](Cc1c[nH]cn1)C(=O)N[C@@H](CCCCN)C(N)=O
B22: H-DMT-r-Phe(4-F)-Sar-NH2 (peptide)
peptide: H-[Dmt][dR][Phe(4-F)][Sar]-NH2
SMILES: Cc1cc(O)cc(C)c1C[C@H](N)C(=O)N[C@H](CCCNC(=N)N)C(=O)N[C@@H](Cc1ccc(F)cc1)C(=O)N(C)CC(N)=O
B23: H-DMT-(D)Asp-G-bhF-N(Me)-Ala-OH (peptide)
peptide: H-[Dmt][dD]G[β3hF][NMeA]-OH
SMILES: Cc1cc(O)cc(C)c1C[C@H](N)C(=O)N[C@H](CC(=O)O)C(=O)NCC(=O)N[C@H](CC(=O)N(C)[C@@H](C)C(=O)O)Cc1ccccc1
B24: H-DMT-(D)Asp-G-bhF-N(Me)-Leu-OH (peptide)
peptide: H-[Dmt][dD]G[β3hF][NMeL]-OH
SMILES: Cc1cc(O)cc(C)c1C[C@H](N)C(=O)N[C@H](CC(=O)O)C(=O)NCC(=O)N[C@H](CC(=O)N(C)[C@@H](CC(C)C)C(=O)O)Cc1ccccc1
B25: H-DMT-(D)Asp-G-bhF-N(Me)-Trp-OH (peptide)
peptide: H-[Dmt][dD]G[β3hF][NMeW]-OH
SMILES: Cc1cc(O)cc(C)c1C[C@H](N)C(=O)N[C@H](CC(=O)O)C(=O)NCC(=O)N[C@H](CC(=O)N(C)[C@@H](Cc1c[nH]c2ccccc12)C(=O)O)Cc1ccccc1

T1 sequence (P35372 whole entry): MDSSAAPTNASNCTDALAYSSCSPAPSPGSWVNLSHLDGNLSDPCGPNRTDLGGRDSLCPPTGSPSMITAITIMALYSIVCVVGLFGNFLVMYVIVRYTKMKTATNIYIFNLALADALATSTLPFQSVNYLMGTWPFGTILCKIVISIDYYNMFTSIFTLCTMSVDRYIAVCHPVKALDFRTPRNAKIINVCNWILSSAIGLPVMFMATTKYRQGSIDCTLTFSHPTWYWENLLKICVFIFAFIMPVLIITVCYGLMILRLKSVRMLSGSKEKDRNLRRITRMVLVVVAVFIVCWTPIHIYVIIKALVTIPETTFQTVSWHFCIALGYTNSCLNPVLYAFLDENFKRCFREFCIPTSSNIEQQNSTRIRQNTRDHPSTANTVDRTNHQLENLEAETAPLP

One assay concerns the target T1, µ-opioid receptor (MOR), Human-ORPM1 (human, UniProt P35372 1-400). Put plainly: cell-based or functional assay.
In the case of H-[Dmt][dR]X[NMeβAla]-OH (not fully specified (residue 3); printed as H-DMT-r-Homo-F-N(Me)bAla-OH) [H-DMT-r-Homo-F-N(Me)bAla-OH], the “MOR EC50” value was not above 1 nM. The same measure, in the same setting: with B1 the figure was not above 1 nM.

Consider B2, for which the “MOR EC50” value is not above 1 nM. On the same count and under the same terms, with B3 the figure was not above 1 nM; with B4, not above 1 nM. As to B5, the “MOR EC50” value was not above 1 nM. The same measure, in the same setting: with B6 the figure was not above 1 nM. Turning to B7, the “MOR EC50” value is not above 200 nM. The same measure, in the same setting: with H-[Dmt][dNMeA]XG-NH2 (not fully specified (residue 3); printed as DMT-N(Me)a-Aba-G) [H-DMT-N(Me)-a-Aba-G-NH2] the figure was not above 1 nM; with B8, not above 200 nM.

Regarding B9, the “MOR EC50” value is not above 1 nM.

As to B10, the “MOR EC50” value was not above 1 nM. The same measure, in the same setting: with B11 the figure was not above 1 nM.

B12: the “MOR EC50” value was not above 200 nM.

Take B13: the “MOR EC50” value is not above 1 nM. As to B14, the “MOR EC50” value is not above 1 nM. Turning to B15, the “MOR EC50” value was not above 10 nM. Same read-out and setting: the same measure for B16: not above 10 nM. Consider B17, for which the “MOR EC50” value is not above 1 nM. On the same count and under the same terms, the same measure for B18: not above 1 nM; for B19: not above 1 nM.

With B20, the “MOR EC50” value was not above 1 nM. The same measure, in the same setting: with B21 the figure was not above 50 nM. Turning to B22, the “MOR EC50” value is not above 1 nM.

The next assay deals with T2, δ-opioid receptor (DOR), Human-ORPD1 (human, UniProt P41143 1-372). The assay is described as follows: cell-based or functional assay.
T2 sequence (P41143 whole entry, stated change not applied): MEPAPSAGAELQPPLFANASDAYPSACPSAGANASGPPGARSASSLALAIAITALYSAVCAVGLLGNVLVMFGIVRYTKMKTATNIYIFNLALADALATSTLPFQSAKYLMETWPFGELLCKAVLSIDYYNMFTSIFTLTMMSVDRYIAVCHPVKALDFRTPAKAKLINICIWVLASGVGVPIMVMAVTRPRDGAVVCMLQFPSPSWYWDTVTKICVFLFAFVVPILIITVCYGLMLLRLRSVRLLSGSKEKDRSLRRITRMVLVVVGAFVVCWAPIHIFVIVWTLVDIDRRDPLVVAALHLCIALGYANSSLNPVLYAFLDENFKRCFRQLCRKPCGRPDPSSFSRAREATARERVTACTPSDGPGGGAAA
As for H-[Dmt][dR]X[NMeβAla]-OH (not fully specified (residue 3); printed as H-DMT-r-Homo-F-N(Me)bAla-OH) [H-DMT-r-Homo-F-N(Me)bAla-OH], the “DOR EC50” value was not above 1 nM.

Consider B1, for which the “DOR EC50” value is not above 1 nM.

As for B2, the “DOR EC50” value was not above 50 nM. The same measure, in the same setting: the same measure for B3: not above 10 nM; for B4: not above 50 nM. For B5, the “DOR EC50” value is not above 1 nM. Still for that read-out and setting: with B6 the figure was not above 50 nM; with B7, not above 200 nM. The same measure, in the same setting: the same measure for H-[Dmt][dNMeA]XG-NH2 (not fully specified (residue 3); printed as DMT-N(Me)a-Aba-G) [H-DMT-N(Me)-a-Aba-G-NH2]: not above 1 nM.

With B8, the “DOR EC50” value was more than 200 nM. The same measure, in the same setting: with B9 the figure was not above 1 nM; with B10, not above 1 nM. Still for that read-out and setting: with B11 the figure was not above 10 nM. The same measure, in the same setting: the same measure for B12: not above 200 nM; for B13: not above 10 nM; for B14: not above 1 nM. For B15, the “DOR EC50” value was not above 1 nM. Still for that read-out and setting: with B16 the figure was not above 1 nM; with B17, not above 1 nM. For B18, the “DOR EC50” value was not above 1 nM. Still for that read-out and setting: with H-[Tic(7-OH)′][dA]G[β3hF][Sar]-NH2 [H-Tic(7-OH)-a-G-bhF-Sar-NH2] the figure was not above 50 nM; with B19, not above 1 nM; with B20, not above 1 nM. Same read-out and setting: the same measure for B21: more than 200 nM; for B22: not above 10 nM.

For another assay, the target named is T1, µ-opioid receptor (MOR), Human-ORPM1. Put plainly: cell-based or functional assay. The source holds these as a separate data set.
Consider B23, for which the “MOR EC50” value is not above 1 nM.

Take B24: the “MOR EC50” value was not above 1 nM.

For B25, the “MOR EC50” value was not above 1 nM.

In the next assay the target is T2, δ-opioid receptor (DOR), Human-ORPD1. The assay is described as follows: cell-based or functional assay. This is another data set of the same source.
Consider B23, for which the “DOR EC50” value was not above 1 nM.

Consider B24, for which the “DOR EC50” value was not above 1 nM.

Turning to B25, the “DOR EC50” value is not above 1 nM.

These data come from US20190076400A1 (PROTAGONIST THERAPEUTICS, published 2019).
